Results on one molecule are retold here after paper PMC4236683, “Semaphorin 5A inhibits synaptogenesis in early postnatal- and adult-born hippocampal dentate granule cells” (eLife, 2014).

The target in assay [1] is T1, full-length PlexA1 with an N-terminal 6xMyc tag (mouse, UniProt P70206 28-1894).
T1 construct: Plexin-A1, mouse, full length (FL); written as one molecule; also called PlexinA1; Myc-FL-A1; source: COS7, transiently transfected, on cells; HEK293T, transfected, in lysate; not shown: 6xMyc, N-terminal, kept
T1 sequence (P70206 28-1894): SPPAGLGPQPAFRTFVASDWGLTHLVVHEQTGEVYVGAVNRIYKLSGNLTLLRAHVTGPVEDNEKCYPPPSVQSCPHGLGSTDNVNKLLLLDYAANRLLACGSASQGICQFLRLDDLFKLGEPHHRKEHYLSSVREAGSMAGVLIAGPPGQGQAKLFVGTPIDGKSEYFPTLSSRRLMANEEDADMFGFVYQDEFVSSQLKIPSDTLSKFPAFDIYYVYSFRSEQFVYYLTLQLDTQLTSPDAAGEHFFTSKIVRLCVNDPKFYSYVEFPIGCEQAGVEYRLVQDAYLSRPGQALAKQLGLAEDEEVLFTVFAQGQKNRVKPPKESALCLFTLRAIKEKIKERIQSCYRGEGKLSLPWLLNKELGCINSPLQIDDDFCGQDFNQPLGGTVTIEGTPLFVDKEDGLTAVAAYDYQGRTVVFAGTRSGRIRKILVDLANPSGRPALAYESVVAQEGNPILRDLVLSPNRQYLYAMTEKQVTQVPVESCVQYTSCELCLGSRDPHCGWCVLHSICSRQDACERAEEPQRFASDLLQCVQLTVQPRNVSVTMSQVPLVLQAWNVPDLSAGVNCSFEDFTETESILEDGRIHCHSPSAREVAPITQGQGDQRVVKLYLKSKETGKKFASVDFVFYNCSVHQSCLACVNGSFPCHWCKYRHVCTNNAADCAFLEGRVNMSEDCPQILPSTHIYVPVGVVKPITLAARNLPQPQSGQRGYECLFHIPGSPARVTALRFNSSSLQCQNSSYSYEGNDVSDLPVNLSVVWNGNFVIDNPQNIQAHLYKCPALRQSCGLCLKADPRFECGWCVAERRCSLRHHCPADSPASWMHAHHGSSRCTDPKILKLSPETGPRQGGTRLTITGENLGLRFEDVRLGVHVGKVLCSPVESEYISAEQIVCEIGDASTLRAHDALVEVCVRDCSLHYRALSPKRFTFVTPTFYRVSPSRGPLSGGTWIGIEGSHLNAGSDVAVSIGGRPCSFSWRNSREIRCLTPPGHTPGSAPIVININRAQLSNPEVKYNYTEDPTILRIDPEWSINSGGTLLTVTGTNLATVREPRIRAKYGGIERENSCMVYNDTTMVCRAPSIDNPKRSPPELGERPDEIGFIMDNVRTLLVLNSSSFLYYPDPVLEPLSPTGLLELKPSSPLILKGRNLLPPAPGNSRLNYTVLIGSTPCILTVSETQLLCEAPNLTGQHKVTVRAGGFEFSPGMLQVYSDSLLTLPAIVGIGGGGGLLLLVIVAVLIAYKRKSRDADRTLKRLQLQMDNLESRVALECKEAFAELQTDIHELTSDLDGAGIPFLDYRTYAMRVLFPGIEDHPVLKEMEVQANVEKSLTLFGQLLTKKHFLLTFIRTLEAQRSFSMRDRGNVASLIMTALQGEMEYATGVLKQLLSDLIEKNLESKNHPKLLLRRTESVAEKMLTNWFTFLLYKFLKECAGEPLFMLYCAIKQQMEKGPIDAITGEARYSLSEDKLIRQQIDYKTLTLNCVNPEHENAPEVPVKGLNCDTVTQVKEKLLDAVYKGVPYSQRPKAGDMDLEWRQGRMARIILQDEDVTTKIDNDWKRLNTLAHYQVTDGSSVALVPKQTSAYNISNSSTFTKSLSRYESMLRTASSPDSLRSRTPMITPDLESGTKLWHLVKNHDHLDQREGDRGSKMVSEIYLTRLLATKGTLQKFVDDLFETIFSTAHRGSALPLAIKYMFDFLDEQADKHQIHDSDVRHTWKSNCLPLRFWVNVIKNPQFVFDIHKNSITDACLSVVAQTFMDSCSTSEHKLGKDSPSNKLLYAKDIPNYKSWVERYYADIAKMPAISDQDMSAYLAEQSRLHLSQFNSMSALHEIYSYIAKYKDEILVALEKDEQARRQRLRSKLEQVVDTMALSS
Description: saturation binding of AP-clustered Fc fusion protein to transfected cells; saturation binding curve of Sema5A-Fc, oligomerized with anti-Fc conjugated to human placental alkaline phosphatase, on COS7 cells expressing PlexA1 or PlexA2. As to conditions: one partner purified.

The target in assay [2] is T2, full-length PlexA2 with an N-terminal 6xMyc tag (mouse, UniProt P70207 35-1894).
T2 construct: Plexin-A2, mouse, full length (FL); written as one molecule; also called PlexinA2; Myc-FL-A2; source: COS7, transiently transfected, on cells; HEK293T, transfected, in lysate; not shown: 6xMyc, N-terminal, kept
T2 sequence (P70207 35-1894): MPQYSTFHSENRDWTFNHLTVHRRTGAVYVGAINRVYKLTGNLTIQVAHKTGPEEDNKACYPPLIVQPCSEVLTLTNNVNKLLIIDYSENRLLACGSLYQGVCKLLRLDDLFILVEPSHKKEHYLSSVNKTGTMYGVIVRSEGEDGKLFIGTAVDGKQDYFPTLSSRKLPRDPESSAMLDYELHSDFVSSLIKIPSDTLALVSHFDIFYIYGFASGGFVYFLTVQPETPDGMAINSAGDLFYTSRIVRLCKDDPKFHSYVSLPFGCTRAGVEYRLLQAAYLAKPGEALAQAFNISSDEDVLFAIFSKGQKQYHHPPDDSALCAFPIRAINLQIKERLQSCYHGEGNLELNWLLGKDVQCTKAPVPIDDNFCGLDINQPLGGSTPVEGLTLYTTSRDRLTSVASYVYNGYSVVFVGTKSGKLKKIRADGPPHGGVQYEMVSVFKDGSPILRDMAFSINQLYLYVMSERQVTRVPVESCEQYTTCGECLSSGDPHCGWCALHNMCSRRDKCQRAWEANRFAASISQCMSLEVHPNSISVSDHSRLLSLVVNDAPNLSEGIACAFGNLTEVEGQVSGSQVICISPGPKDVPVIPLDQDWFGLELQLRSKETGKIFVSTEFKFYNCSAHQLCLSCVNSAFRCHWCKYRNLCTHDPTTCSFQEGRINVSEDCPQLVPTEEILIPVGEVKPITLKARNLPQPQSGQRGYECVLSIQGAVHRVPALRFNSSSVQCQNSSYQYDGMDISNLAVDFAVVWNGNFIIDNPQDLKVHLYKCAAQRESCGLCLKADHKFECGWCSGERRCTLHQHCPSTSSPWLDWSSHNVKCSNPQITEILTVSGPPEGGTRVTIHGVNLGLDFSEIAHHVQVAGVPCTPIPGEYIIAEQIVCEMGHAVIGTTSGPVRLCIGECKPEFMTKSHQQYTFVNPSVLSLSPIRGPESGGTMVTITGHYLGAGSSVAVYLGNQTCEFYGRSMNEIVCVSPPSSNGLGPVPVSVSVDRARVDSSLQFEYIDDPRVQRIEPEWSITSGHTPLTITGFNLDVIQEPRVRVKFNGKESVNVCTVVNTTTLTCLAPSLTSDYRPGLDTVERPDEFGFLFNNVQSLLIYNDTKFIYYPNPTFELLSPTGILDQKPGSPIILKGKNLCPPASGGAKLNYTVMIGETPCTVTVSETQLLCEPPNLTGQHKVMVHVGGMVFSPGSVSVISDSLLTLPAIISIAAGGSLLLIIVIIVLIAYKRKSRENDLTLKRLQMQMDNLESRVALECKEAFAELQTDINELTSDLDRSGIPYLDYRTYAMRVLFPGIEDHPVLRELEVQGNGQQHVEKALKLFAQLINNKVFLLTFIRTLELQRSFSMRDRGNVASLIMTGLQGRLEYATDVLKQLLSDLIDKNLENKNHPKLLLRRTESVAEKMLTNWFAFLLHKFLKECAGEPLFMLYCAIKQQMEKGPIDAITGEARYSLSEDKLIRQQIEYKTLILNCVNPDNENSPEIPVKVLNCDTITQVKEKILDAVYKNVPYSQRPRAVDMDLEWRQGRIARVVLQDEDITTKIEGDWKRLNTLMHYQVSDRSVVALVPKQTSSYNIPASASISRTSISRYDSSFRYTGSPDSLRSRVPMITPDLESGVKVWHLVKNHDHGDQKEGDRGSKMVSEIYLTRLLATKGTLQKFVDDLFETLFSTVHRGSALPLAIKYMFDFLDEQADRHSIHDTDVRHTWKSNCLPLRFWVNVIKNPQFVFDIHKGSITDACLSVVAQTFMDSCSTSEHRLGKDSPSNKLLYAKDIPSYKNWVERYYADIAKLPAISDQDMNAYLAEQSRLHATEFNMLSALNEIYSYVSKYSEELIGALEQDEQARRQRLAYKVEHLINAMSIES
The description is as above. The note with it: one partner purified.

B1: Sema5A-Fc (Sema5A ectodomain fused to Fc) (Fc fusion, rat, UniProt D3ZTD8 23-961, looked up)
chain: ETQDPAKCQRAEHPVVSYKEIGPWLREFRAENAVDFSRLTFDPGQKELVVGARNYLFRLQLEDLSLIQAVQWECDEATKKACYSKGKSKEECQNYIRVLLVGGDRLFTCGTNAFTPVCTIRSLSNLTEIHDQISGMARCPYSPQHNSTALLTASGELYAATAMDFPGRDPAIYRSLGTLPPLRTAQYNSKWLNEPNFVSSYDIGNFTYFFFRENAVEHDCGKTVFSRAARVCKNDIGGRFLLEDTWTTFMKARLNCSRPGEVPFYYNELQSTFFLPELDLIYGIFTTNVNSIAASAVCVFNLSAISQAFNGPFKYQENSRSAWLPYPNPNPNFQCGTMDQGLYVNLTERNLQDAQKFILMHEVVQPVTTVPSFMEDNSRFSHVAVDVVQGRDTLVHIIYLATDYGTIKKVRAPLSQSSGSCLLEEIELFPERKSEPIRSLKILHSQSVLFVGLQEHVVKIPLKRCHFHQTRGACIGAQDPYCGWDAVMKKCTSLEESLSMTQWDQSVPTCPTRNLTVDGSFGPWSPWTPCTHTDGTAVGSCLCRSRSCDSPAPQCGGWQCEGPRMEITNCSRNGGWTPWTSWSPCSTTCGIGFQVRQRSCSNPTPRHGGRVCVGQNREERYCNEHLLCPPHVFWTGWGPWERCTAQCGGGIQARRRTCENGPDCAGCNVEYQPCNTNACPELKKTTPWTPWTPVNISDNGGHYEQRFRYTCKARLPDPNLLEVGRQRIEMRYCSSDGTSGCSTDGLSGDFLRAGRYSAHTVNGAWSAWTSWSQCSRDCSRGIRNRKRVCNNPEPKYGGMPCLGPSLEFQECNILPCPVDGVWSCWSSWSKCSATCGGGHYMRTRSCTNPAPAYGGDICLGLHTEEALCNTQTCPENWSEWSEWSVCDASGTQVRTRQCILLFPVGSQCSGNTTESRPCVFDSNFIPEVSVARSSSVEEK
notes: signal peptide in the construct; Sema5A ectodomain, rat cDNA NM_001107659, residues 1-961; Assembled in pcDNA3.0; also called Fc-tagged Sema5A ectodomain protein
In general, Kd refers to a measure of binding affinity in units of concentration. Low values mean higher affinity, high ones lower affinity. For the molecule B1, the Kd in assay [1] amounted to 10 nM; in assay [2], 13 nM.
